In patent US20170037146A1 (GENOR BIOPHARMA, published 2017):

B1: GB235-019 recombinant full-length IgG1 isotype antibody (wild type) (antibody, V domains shown)
VH: EVQLVQSGAEVKKPGAPVKVSCKASGYTFTSYDINWVRQATGQGLEWMGWMNPNSGNTGYAQKFQGRVTMTRNTSISTAYMELSSLRSEDTAVYYCARGYYLSRGDFWGQGTLVTVSS
VL: DIQMTQSPSSVSASVGDRVTITCRASQGISSWLAWYQQKPGKAPKLLIYAASSLQSGVPSRFSGSGSGTDFTLTISSLQPEDFATYYCQQANSFPLTFGGGTKVEIKR
modifications: N-linked glycan at Asn73 (Fab framework region 3)
notes: Full-length IgG1 expressed in FreeStyle 293F cells; Derived from scFv clone WG1-019; also called GB235-019WT; GB235-019 wild-type antibody
B2: GB235-019S75A mutated antibody (antibody, human IgG1, kappa, V domains shown)
VH: EVQLVQSGAEVKKPGAPVKVSCKASGYTFTSYDINWVRQATGQGLEWMGWMNPNSGNTGYAQKFQGRVTMTRNTAISTAYMELSSLRSEDTAVYYCARGYYLSRGDFWGQGTLVTVSS
VL: DIQMTQSPSSVSASVGDRVTITCRASQGISSWLAWYQQKPGKAPKLLIYAASSLQSGVPSRFSGSGSGTDFTLTISSLQPEDFATYYCQQANSFPLTFGGGTKVEIKR
notes: full-length IgG1; also called GB235-019575A
B3: GB235-019N73D mutated antibody (antibody, human IgG1, kappa, V domains shown)
VH: EVQLVQSGAEVKKPGAPVKVSCKASGYTFTSYDINWVRQATGQGLEWMGWMNPNSGNTGYAQKFQGRVTMTRDTSISTAYMELSSLRSEDTAVYYCARGYYLSRGDFWGQGTLVTVSS
VL: DIQMTQSPSSVSASVGDRVTITCRASQGISSWLAWYQQKPGKAPKLLIYAASSLQSGVPSRFSGSGSGTDFTLTISSLQPEDFATYYCQQANSFPLTFGGGTKVEIKR
notes: full-length IgG1
B4: GB235-019N73Q mutated antibody (antibody, human IgG1, kappa, V domains shown)
VH: EVQLVQSGAEVKKPGAPVKVSCKASGYTFTSYDINWVRQATGQGLEWMGWMNPNSGNTGYAQKFQGRVTMTRQTSISTAYMELSSLRSEDTAVYYCARGYYLSRGDFWGQGTLVTVSS
VL: DIQMTQSPSSVSASVGDRVTITCRASQGISSWLAWYQQKPGKAPKLLIYAASSLQSGVPSRFSGSGSGTDFTLTISSLQPEDFATYYCQQANSFPLTFGGGTKVEIKR
notes: full-length IgG1

The binders below were run against T1, Human HER2 antigen (Sino Biological Inc., catalog number 10004-H08H) (human, UniProt P04626 23-652) (assay: ELISA on coated human HER2 antigen, anti-human IgG Fc-HRP detection).
T1 construct: Bought antigen coated on the ELISA plate
Experimental: Human HER2 antigen (purchased from Sino Biological Inc., catalog number: 10004-H08H) was diluted to 1 μg/ml using PBS buffer, and added to an ELISA plate at 100 μl/well to perform coating at 4° C. overnight. The plate was washed with PBST for four times, then 5% BSA (purchased from Amresco, USA, catalog number: 0332-100g, the solution being PBS) was added at 300 μl/well to perform blocking at room temperature for 1 hour. […] Each of the dilutions was added to an ELISA plate at 100 μl/well and incubated at room temperature for 1 hour. The plate was washed with PBST for four times, then HRP-labeled goat anti-human IgG Fc antibody (purchased from CalBiochem Inc., USA, catalog number: AP113A-K) was diluted at 1:10000 with PBS buffer, and added to the ELISA plate at 100 μl/well to perform incubation at room temperature for 1 hour. The plate was washed with PBST for four times, then a solution of 3,3′,5,5′-tetramethylbenzidine substrate (purchased from Tiangen Co., Ltd., catalog number: PA107-01) was added at 100 μl/well to perform incubation at room temperature for 15 minutes for visualization. A stop solution (1 M sulfuric acid) was added at 50 μl/well, and absorbance value was read at 450/630 nm wavelength on an M5 multi-functional ELISA plate (Molecular Devices Inc., USA).

Binding result, binds:
B1, B2, B3, B4
